{"source": "patent US11844843", "target": "recombinant human TfR1 (transferrin receptor protein 1) (human) (UniProt P02786)", "sequence (P02786 89-760 limits assumed)": "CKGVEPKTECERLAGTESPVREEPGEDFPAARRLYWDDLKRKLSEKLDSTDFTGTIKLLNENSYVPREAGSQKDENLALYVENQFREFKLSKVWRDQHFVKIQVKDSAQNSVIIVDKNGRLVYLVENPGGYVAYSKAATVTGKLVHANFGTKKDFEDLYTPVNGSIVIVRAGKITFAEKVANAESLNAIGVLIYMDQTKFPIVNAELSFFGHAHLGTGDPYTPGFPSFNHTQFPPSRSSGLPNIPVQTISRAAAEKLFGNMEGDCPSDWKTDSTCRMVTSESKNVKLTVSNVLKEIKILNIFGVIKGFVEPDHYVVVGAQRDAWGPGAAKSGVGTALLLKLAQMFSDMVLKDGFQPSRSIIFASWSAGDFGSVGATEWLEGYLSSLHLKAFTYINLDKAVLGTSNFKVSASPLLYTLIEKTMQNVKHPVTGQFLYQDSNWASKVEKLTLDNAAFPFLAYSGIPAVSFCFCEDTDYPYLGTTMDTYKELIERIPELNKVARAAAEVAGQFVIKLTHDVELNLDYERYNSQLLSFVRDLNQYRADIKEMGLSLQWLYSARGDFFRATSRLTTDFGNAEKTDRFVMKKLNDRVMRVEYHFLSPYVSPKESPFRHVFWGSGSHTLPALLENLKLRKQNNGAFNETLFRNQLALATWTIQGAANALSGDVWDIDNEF", "assay": "Carterra LSA SPR, 25 C; IgG captured, hTfR1 as analyte; 1:1 fit", "data": [{"substance": "OKT9 mIgG (control anti-TfR1 antibody)", "values": [{"measurement": "Kd", "result": 0.536, "unit": "nM"}, {"measurement": "kon", "result": 774000, "unit": "M⁻¹ s⁻¹"}]}]}
